Laboratory results published in article PMC11033526 (Journal of Biochemistry, 2023).
No end group written: not given here. *: point of attachment. Biotin = O=C1N[C@H]2[C@H](CS[C@H]2CCCCC(=O)*)N1

Assays:
mouse calmodulin [1] = target: T1, mouse calmodulin (mouse, UniProt P0DP26 1-149); assay: pull-down; His-tagged ySUMO-fusion protein on Ni-NTA Superflow, ySUMO portion denatured with 6 M guanidine chloride; 0.6 μM mCaM in +Ca2+ buffer (150 mM NaCl, 0.1% Tween 20, 1 mM CaCl2, pH 7.5), 4°C, 2 h; CaM detected by western blot; conditions: both partners purified
T1 construct: also called mCaM; CaM; source: E. coli BL21 (DE3) pLysS, purified (Phenyl Sepharose)

mouse calmodulin [2] = target: T1, mouse calmodulin; assay: SPR; Biacore 2000; biotinylated T1r peptides on a CAP chip (Biotin CAPture Kit); mCaM injected, 2-fold dilutions from 50 μM, +Ca2+ (1 mM CaCl2), 25°C, 30 μl/min; KD from equilibrium responses, 1:1 model; conditions: both partners purified

binding result (mouse calmodulin [1])	Kd (mouse calmodulin [2]) [µM]	Binder
binds	–	PKCYVILCRPELNNTEHFQASIQDYTRRCGTT (domain or fragment, mouse T1r1, cytosolic C-terminal region (CT), residues 811-842; On the Ni-NTA beads the ySUMO portion was denatured with 6 M guanidine chloride before mCaM was added; also called ySUMO-fusion protein of the mT1r1 C-terminal region; source: E. coli BL21 (DE3), purified (Ni-NTA); not shown: FLAG, N-terminal, kept; ySUMO, N-terminal, kept; His8, C-terminal, kept) [FLAG-ySUMO-mT1r1 CT]
–	27	Biotin-GGSGGSPKCYMILFYPERNTSAYFNSMIQGYTMRKS (N-terminal linker segment; mouse T1r2, cytosolic C-terminal region as defined by TMHMM, residues 814-843; source: synthetic peptide (Hokkaido System Science, ~90% purity)) [biotin-mT1r2 CT peptide (cytosolic C-terminal region of mouse taste receptor type 1 subunit 2)]
binds	–	PKCYMILFYPERNTSAYFNSMIQGYTMRKS (domain or fragment, mouse T1r2, cytosolic C-terminal region (CT), residues 814-843; On the Ni-NTA beads the ySUMO portion was denatured with 6 M guanidine chloride before mCaM was added; also called ySUMO-fusion protein of the mT1r2 C-terminal region; source: E. coli BL21 (DE3), purified (Ni-NTA); not shown: FLAG, N-terminal, kept; ySUMO, N-terminal, kept; His8, C-terminal, kept) [FLAG-ySUMO-mT1r2 CT]
